Target: wild-type Pseudomonas testosteroni ketosteroid isomerase (KSI) (Pseudomonas testosteroni)
Experiment: SEC

## wild-type Pseudomonas testosteroni ketosteroid isomerase (KSI) (enzyme)
  stoichiometry N: 2

Reference: doi:10.1101/2021.07.02.450934
